Consider ten molecules from patent US20170029530A1 (AbbVie / Abbott, published 2017).

The target of one assay is T1, cDPEP3 (Macaca fascicularis, UniProt Q4R7M2).
T1 construct: extracellular domain; also called cynomolgus DPEP3-His; cynomolgus DPEP3 ECD with histidine tag
T1 sequence (single chain, looked up): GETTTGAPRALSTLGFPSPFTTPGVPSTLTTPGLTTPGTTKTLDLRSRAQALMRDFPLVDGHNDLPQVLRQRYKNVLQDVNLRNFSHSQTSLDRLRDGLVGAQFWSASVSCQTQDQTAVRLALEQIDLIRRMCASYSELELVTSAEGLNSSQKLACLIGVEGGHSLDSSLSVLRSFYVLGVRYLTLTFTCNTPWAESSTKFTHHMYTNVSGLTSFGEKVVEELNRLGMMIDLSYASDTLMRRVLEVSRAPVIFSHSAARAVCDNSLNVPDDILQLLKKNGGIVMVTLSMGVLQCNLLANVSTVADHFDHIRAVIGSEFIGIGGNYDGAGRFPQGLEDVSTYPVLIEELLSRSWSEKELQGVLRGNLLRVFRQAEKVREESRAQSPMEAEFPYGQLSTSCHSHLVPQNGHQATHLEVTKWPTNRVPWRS
Put plainly: ELISA, coated antigen.

The next assay has as its target T2, mDPEP3 (limits assumed).
T2 construct: also called mouse DPEP3-His; mouse DPEP3 ECD with histidine tag
T2 single chain: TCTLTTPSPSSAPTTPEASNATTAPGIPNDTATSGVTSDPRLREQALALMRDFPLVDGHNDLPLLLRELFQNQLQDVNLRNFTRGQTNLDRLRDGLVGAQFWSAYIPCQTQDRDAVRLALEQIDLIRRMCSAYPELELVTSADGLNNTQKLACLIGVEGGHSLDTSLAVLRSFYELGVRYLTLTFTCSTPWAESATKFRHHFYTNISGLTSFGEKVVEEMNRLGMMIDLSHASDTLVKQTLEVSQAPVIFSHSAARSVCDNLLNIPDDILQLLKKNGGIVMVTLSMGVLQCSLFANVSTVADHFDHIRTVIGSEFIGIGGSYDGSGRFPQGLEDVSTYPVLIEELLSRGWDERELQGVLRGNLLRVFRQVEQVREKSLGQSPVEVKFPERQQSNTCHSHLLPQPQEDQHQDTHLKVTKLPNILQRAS
Briefly: ELISA, coated antigen. For orientation: ELISA stands for enzyme-linked immunosorbent assay.

Assay [1] deals with T3, rat DPEP3 ECD with histidine tag (rat, UniProt Q5U2X4 36-459, limits assumed).
T3 construct: also called rDPEP3-His; ratDPEP3-His; not shown: histidine tag
T3 sequence: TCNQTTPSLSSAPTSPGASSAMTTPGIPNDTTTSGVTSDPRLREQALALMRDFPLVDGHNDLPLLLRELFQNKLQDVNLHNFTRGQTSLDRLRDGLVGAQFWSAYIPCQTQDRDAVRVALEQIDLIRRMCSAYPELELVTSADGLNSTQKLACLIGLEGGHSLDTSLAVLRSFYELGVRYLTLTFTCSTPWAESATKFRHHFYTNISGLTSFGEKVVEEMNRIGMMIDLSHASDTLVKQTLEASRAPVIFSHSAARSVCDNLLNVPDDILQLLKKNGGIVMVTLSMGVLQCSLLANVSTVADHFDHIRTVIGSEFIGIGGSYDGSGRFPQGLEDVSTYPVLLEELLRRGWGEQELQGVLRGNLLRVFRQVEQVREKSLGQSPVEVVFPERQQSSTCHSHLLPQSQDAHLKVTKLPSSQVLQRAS
Briefly: ELISA, coated antigen.

The target of assay [2] is T4, hDPEP2 ECD with histidine tag (human, UniProt Q9H4A9 33-463).
T4 construct: also called hDPEP2-His; not shown: histidine tag
Briefly: ELISA, coated antigen.

The target in another assay is T5, hDPEP3-ECD-His (human, UniProt Q9H4B8 36-463).
T5 construct: also called hDPEP3-His; monomeric hDPEP3-His antigen; not shown: histidine tag
T5 sequence: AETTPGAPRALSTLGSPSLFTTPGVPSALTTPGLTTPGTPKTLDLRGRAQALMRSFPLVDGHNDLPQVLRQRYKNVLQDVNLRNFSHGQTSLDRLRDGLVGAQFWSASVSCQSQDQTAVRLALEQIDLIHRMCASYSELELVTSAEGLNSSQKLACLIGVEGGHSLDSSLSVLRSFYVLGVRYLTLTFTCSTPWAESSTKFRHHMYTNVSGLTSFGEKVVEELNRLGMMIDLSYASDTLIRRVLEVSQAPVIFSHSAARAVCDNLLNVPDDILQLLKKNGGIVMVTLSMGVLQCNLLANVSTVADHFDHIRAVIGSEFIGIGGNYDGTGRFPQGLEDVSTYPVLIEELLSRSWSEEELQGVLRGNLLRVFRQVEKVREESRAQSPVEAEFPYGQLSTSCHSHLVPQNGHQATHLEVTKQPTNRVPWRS
Put plainly: BLI ForteBio RED, 200 nM hDPEP3-His, estimated grade. The method in brief: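 Antibodies were captured on anti-mouse Fc biosensors to 0.3-1 units, then exposed to hDPEP3-His for a 4 min association and a 3 min dissociation at 1000 rpm. A control mouse IgG response was subtracted, and KD was estimated qualitatively from the curves. Sensors were regenerated with 10 mM glycine, pH 1.7.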

Residue numbers refer to the chain shown, from its start. Values joined by “and” are separate entries in the source; they are usually repeats but may differ in a detail not shown here. Equal values may be shown once.

As a reminder, the Kd is the constant that tells how readily two partners part at equilibrium.

T4 sequence (Q9H4A9 33-463): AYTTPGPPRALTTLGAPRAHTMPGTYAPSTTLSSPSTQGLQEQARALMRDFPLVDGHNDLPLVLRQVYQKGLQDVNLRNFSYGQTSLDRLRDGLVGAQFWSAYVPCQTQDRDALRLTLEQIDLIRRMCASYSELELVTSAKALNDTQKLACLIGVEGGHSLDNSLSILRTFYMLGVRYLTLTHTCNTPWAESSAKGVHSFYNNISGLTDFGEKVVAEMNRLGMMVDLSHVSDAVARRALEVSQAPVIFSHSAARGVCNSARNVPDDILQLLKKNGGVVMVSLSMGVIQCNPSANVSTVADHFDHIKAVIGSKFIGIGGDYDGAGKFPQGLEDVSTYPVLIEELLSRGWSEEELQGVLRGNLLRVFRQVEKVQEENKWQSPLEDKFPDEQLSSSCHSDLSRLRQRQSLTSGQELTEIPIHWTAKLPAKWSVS

B1: SC34.90 (antibody, mouse IgG2a, V domains shown)
VH: QVQLQQSGAELMKPGASVKISCKATGYTFSYYWIEWVKQRPGHGLEWIGEILPGSDTTYYNEKFKGKATFTADTSSNTAYMQLSSLTSEDSAVYYCTIRRAAYYSNPEWFAYWGQGTLVTVSA
VL: QIVLTQSPAIMSASQGERVTMTCTASSSVSSSYLHWYQQKPGSSPKLWIYSTSNLASGVPVRFSGSGSGTSYSLTISSMEAEDAATYYCHQYHRSPYTFGGGTKLEIK
Take B1: the binding result (with cDPEP3; with mDPEP3; in assay [1]; in assay [2]) was “no binding (tested: 1 ug/mL)” in each case. The equilibrium dissociation constant (Kd) in the assay with hDPEP3-ECD-His is ≥ 5 nM and ≤ 10 nM.

B2: SC34.33 (antibody, mouse IgG1, V domains shown)
VH: B1 VH with Y31S, T57K, K63R, G66D, I98R, R100A
VL: B1 VL with Q15L, S30N, S32F, Y50H, V61G
Consider B2, for which the binding result (with cDPEP3; with mDPEP3; in assay [1]; in assay [2]) was “no binding (tested: 1 ug/mL)” each time. For the same molecule, the Kd with hDPEP3-ECD-His is ≥ 5 nM and ≤ 10 nM.

B3: SC34.28 mouse anti-DPEP3 antibody (antibody, V domains shown)
VH: B1 VH with Y31S, D56G, T57N, K63R, G66D, T97A, I98R, R100A
VL: B1 VL with Q15L, S30N, S32F, Y50H, V61G
notes: Mouse hybridoma antibody, the source of hSC34.28
B3: the binding result (in the assay with cDPEP3; in the assay with mDPEP3; in assay [1]; in assay [2]) was “no binding (tested: 1 ug/mL)” throughout. Further, the Kd with hDPEP3-ECD-His is ≥ 5 nM and ≤ 10 nM.

B4: SC34.26 (antibody, mouse IgG2b, V domains shown)
VH: QVQLQQPGAELVKPGASVTLSCKASGYTFTSYYIYWVKQRPGEGLEWIGEINPSNGGPNFNERFKNKATLTVDKSSSTAYMQLSSLTSEDSAVYYCTRGLLYYDYDRGFAYWGQGTLVTVSA
VL: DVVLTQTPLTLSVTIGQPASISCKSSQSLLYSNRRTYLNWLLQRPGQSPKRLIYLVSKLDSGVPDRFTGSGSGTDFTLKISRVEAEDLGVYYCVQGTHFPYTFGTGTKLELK
Turning to B4, the binding result (with cDPEP3; in the assay with mDPEP3; in assay [1]; in assay [2]) was “no binding (tested: 1 ug/mL)” each time. In the assay with hDPEP3-ECD-His, the Kd was greater than 10 nM.

B5: SC34.53 mouse anti-hDPEP3 antibody (antibody, V domains shown)
VH: B4 VH with N52D, E62D
VL: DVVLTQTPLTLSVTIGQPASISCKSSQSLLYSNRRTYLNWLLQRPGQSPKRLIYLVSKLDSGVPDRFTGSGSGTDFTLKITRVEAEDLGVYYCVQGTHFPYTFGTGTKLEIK
notes: Mouse hybridoma antibody
As to B5, the binding result (in the assay with cDPEP3; with mDPEP3; in assay [1]; in assay [2]) was “no binding (tested: 1 ug/mL)” throughout. The Kd with hDPEP3-ECD-His is ≥ 5 nM and ≤ 10 nM.

B6: SC34.38 (antibody, mouse IgG2b, V domains shown)
VH: B4 VH with I34M, P58A, Y94F
VL: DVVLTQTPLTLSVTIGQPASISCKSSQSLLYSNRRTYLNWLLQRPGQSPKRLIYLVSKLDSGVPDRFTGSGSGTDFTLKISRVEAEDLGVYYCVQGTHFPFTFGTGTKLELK
For B6, the binding result (with cDPEP3; with mDPEP3; in assay [1]; in assay [2]) was “no binding (tested: 1 ug/mL)” throughout. Moreover, the Kd in the assay with hDPEP3-ECD-His was less than 5 nM.

B7: SC34.21 (antibody, mouse IgG1, V domains shown)
VH: EVQLQQSGPELVKPGTSMKISCKASGYSFTGYTMNWVKQSHGKNLEWIGLIYPYNDDTRYNRKFKGKATLTVDKSSNTAYMELLSLTSVDSAVCYCARGSYGSPFFDVWGAGTTVTVSS
VL: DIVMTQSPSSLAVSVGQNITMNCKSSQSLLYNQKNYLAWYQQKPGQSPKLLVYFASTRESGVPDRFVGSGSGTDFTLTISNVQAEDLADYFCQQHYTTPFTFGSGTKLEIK
Take B7: the binding result (with cDPEP3; with mDPEP3; in assay [1]; in assay [2]) was “no binding (tested: 1 ug/mL)” throughout. In the assay with hDPEP3-ECD-His, the equilibrium dissociation constant (Kd) is less than 5 nM.

B8: SC34.18 (antibody, mouse IgG2b, V domains shown)
VH: QVSLKESGPGILQPSQTLSLTCSFSGFSLSTSGMGVGWIRQPSGKGLEWLANIWWDDSIYYNTALKSRLTISKDTSKNQVFLKIASVDTADTATYSCARIESYYGNRAWFAYWGQGTLVTVSA
VL: DIVMTQSQKFMSTSVGDRVSITCKASQNVRTAVGWYQQKPGQSPKTLIYLASNRHTGVSDRFTGSGSGTDFTLTISNVQSEDLADYFCLQHWNYPWTFGGGTKLEIK
Turning to B8, the binding result (with cDPEP3; in the assay with mDPEP3; in assay [1]; in assay [2]) was “no binding (tested: 1 ug/mL)” each time. For the same molecule, the Kd with hDPEP3-ECD-His was less than 5 nM.

B9: SC34.40 (antibody, mouse IgG2a, V domains shown)
VH: EVQLQESGPGLAKPSQTLSLTCSVTGYSITSDYWNWIRKFPGNKLEYMGYITYSGSTYYNPSLKSRISITRDTSKNQYYLQLNSVTTEDTATYYCARARVYYYDGRYGRAMDYWGQGTSVTVSS
VL: DIQMTQSPASLSASVGETVTMTCRASENIYSNLAWYQQKQGKSPQVLVYAATNLADGVPSRFSGSESGTQFSLKINSLQPEDFGSYYCQHFYGTPWTFGGGTKLEIK
Regarding B9, the binding result (with cDPEP3; in the assay with mDPEP3; in assay [1]; in assay [2]) was “no binding (tested: 1 ug/mL)” each time. Further, the Kd with hDPEP3-ECD-His is ≥ 5 nM and ≤ 10 nM.

B10: SC34.41 (antibody, mouse IgG1, V domains shown)
VH: EVKLVESGGGLVKPGGSLKLSCAASGFTFTSYTMSWVRQTPAKRLEWVATISTGGGNTYYPDIVKGRFTISRDNARSTLYLQMSSLRSEDSAMYYCARRFYDGSYNYWYFDVWGAGTTVTVSS
VL: DIQMIQSPSSMFASLGDRVSLSCRASQGIRGNLDWYQQKPGGTIKLLIYSTSNLNSGVPSRFSGSGSGSDYSLTISSLESEDFADYYCLQRDAYPYTFGGGTKLEIK
In the case of B10, the binding result (in the assay with cDPEP3; with mDPEP3; in assay [1]; in assay [2]) was “no binding (tested: 1 ug/mL)” in each case. Besides, the Kd with hDPEP3-ECD-His is greater than 10 nM.
